The source of these data is the domain aggregation screens of Martell et al. (2025).

A short description of the series: soluble fraction after stress (log2 fold change); higher = more stays soluble; pooled small domains, quantitative proteomics. To be noted: stress: 50 degC. The gist of the method:
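Pooled custom libraries of small protein domains were each held under stress at 50°C. The read-out, high-throughput quantitative proteomics, tracked how much of each protein stayed soluble. This is reported as a base-two log fold change used to indicate aggregation propensity. Higher values mean more protein remains in solution.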
As to “HMLKEGQYSPNHFHWHKMEDIINRGGGTLLIRVYNSLPDEEIDRESDVTVHMDGVTRTVPAGTQLRLE”, the “soluble fraction (log2)” value was -0.229.
The result for “HMLKETGVITASVLNVREDIGTSSNIVAQLKKGMEVNILESRAIAGSETWYRIDAGSIKGWIFGDYI” reads -3.62.
Under “HMLKFGLSQRELQILALLPTDEPLSILAKSLFISESTLKTHLTHIYRKLGVKNRLQAINVARKAGLLK” stands -0.283; under “HMLKHSKQRDAIEQFLATRYDHPTAETVYMNLREEYPKLSLATVYRNLSLLAELGNIQKIPTGNGPDRFDG”, -0.555.
Under “HMLKIAENIYQRRKEKNITQEELADFMMVTKASVSKWETGQSYPDILLLPKLATFFNVTVDELIGYEPQ” stands -1.2; under “HMLKIVRSREEVESRLYTIYGNVKGRRLYNFYLSLIIDGLDIVKARTSKNVYYTNIRNLKNAGIDFSQKIN”, -2.38; under “HMLKPKDLHLGDSVRVLSLNLKGTVSSLPDTKGFLFVQMGIMRSKLHISDLQLIDEPVITAP”, -0.128.
Take “HMLLFSVADIVKRSKRILSFKTDAELAAYFGVSRSTLSNWIARNSIDFPLLLSKMKDVDYTWLILGKGTPG”: the “soluble fraction (log2)” value is -3.97.
The result for “HMLLLHINQMGVTEFSQLELNHVRSWLANLQIKGAARSSITRRVVSVRAFTYWGAKNGWLASDIGRDLVAP” reads -0.277; that for “HMLLRVGGLVKDGSVRTDNDLGIKFIIEDNLAEVSVLYNGILPDLFREGQGVIAEGKFIDNIFIANEIVA”, -0.519; that for “HMLLSHTAQREGELLTFLRGELALSSGLVKRLKWQNAFFLDGAPVHTNARVKPGQEITVRIEE”, -0.143.
With “HMLLTEETLPQLKQIVDEFPYFQIARMLYLKNLAVLNDIRFSVELKKMSIYVPDRRKLFTLIEGE”, the “soluble fraction (log2)” value was found to be 0.00426.
Under “HMLLTLPEDIITMVRQGTLSAGHARVLAGLESDEMKMTLARQTITNEWSVRQLENAVALMRKS” stands -0.0766; under “HMLLTPLEETRLVIEEIVIPQKLTIDLLPRSSAIRKLQHELITHYQLRGTSVGNEPNRRLRIYP”, -0.244.
The result for “HMLMNADVLVKYQEDHWIVISEKASQASDTFDKKEQAVERAKEIAKNKNSSVKVYKQDGTLQDTFDYS” reads 0.122; that for “HMLMSDEENAEFTKLYRQLVFKLHPDLNPNQTKDEENLWHKVQMAYKGGDLEEMRSLAIILDAQ”, -0.0474; that for “HMLMTGSLQTKHGKYYVVVRIPDGLGNTKAKWINTGIPTDGNNKRKAQQRRIEILTELEENKD”, -1.84.
In the case of “HMLMYAQDEKEEASNNIPYRLLHMSFTKEQKAELQRAMDVRVPKDIILSYFYPDTPVARMMEIRRQYESA”, the “soluble fraction (log2)” value was -0.472.
The result for “HMLNDKLQTLFSLFPAVDKDLKKKGVTRQILWEQYKRNHPDGVGRSQFNYYYAQWKDQVNPT” reads -1.47; that for “HMLNDMYAVMEIRGQGGELIAKLINQDGSPFYVKKGTTLQSGHVIDEITTTYVRAEKAGAKDYLYF”, -0.0846; that for “HMLNDTGAIRAAVEEVLAANEKSVNEYKGGKTQAFQYLIGQSMRALRGKAPAQEVTKLLKELLG”, -0.263.
Under “HMLNQIGVSQKEFDQIHTAIKIALKTSSLTPTGITEKLPKFPPEKTADILRWMADNKEVLLNSEEKYELKT” stands -0.0315.
The result for “HMLPAGAAAPLEDGSAPEGYTVKGNADSGLYHEPDGRWYDATVAEFWFKTAADAEAAGFRKAGS” reads 0.121; that for “HMLPDGEAFVKVNTSLNIRTGPWGQIVGWFHNNDKVKIIGRDGDWYKISHNGQTRYIHSRYVSSSR”, -0.913; that for “HMLPDHAPITMRQLAMLHVAKNKLDLTDEDYRSLLLLYGGVESSKQLNQEGLRRVLDRFKELGFEP”, -0.0947.
In the case of “HMLPDLLNGRVIPSPEKVIRARLNRGVWELLVQWVGRAPSDATWENLLEFKSAYPSVQLEDALF”, the “soluble fraction (log2)” value was -1.45.
As for “HMLPDLQKAIDTFLYEVDSRINTSFEELIDKLNSKEEAVAFFLALLEAVRWGFIKAEQESNSINIKK”, the “soluble fraction (log2)” value was -0.565.
The result for “HMLPDSQLMKEATAWFMRQAADDFSGAERRRLDAWRAQSPAHARAYHQVQALWNAPELQQAAAR” reads -0.0227; that for “HMLPEGIENGDVLTRTDALDYRKWLVTGNQKRIFASTASFYGENFNYSEVKAVSDRVLDAIPDGEPV”, -0.0574; that for “HMLPFGHTRLEDGTIQEIPEQIALARKVAEMYKAGFPVMQISIKTEGLLTPRQIYGLMNHWGVKR”, -1.24.
“HMLPIKLDLEIGENVRVVSGPLENFVGSVVSFDTDQQKVKLVVEMFGRKTPVELDFIEVQKLR”: the “soluble fraction (log2)” value was -0.435.
The result for “HMLPIMDRLITAGISINTAKKWVDKFGDKRIKQNLAYSLAKQKEGKVKTNFVGYLAKAIEEDWGSGWE” reads -0.557; that for “HMLPKAERREQLMAVARSVFAEQGYHTTSMEIIAETAGVSKPLLYQHFPSKLDLYLALLDAGID”, -1.56; that for “HMLPKILVMDGKVNKNALTTLGKDEEWVKKVLRNHNIHSIKDVLLALYDTKGKFQYQLYDDYEK”, -0.0783.
Under “HMLPKNITNTIDHWIQKFPQGKQRSAIIAALHAVQHHNKGFLTNDLLNQVADYIDVPKMNVYEVATFYSM” stands 0.0843; under “HMLPLIEVPAVTGKYLTKAKSALKDAGLDTGDIKRVEHEEHGENYVLKQDPPAGTKVPFGTTVSLTVVAP”, 0.35; under “HMLPLLEYLDPFTGKKTYTYLNPDTQHPIFTYYSYQDDKTGRTAYSYIDPLTGKAVNSDEPPMDILYD”, -0.441.
Under “HMLPPHMEVRAIMILDKRPMALMNIEGEGDGLIVSPGYRFGDGRGRVVSITQTKVVVLWAGTSMEL” stands -2.28; under “HMLPQYELIKQYLRHQIETGEWPIGYRTPSEPKLAEQFSVSRMTARRALQELADQGLLSRTAGSGTFVAKP”, -0.483.
In the case of “HMLPVQGEEVAPGLYKFDFPFLADKRVWEKTINAFKAEHPELKVNYIYTGPDELNSKKKTHVLVYVFTES”, the “soluble fraction (log2)” value is -0.0974.
The result for “HMLPVYSITEAAERLDIPASTIKWYADRFASYISPSKGKGRKRFTPEDLATLQKIHELSQDHTTEEAEAML” reads -0.281; that for “HMLPYKGTVAVSLAVLHKAVGVGTADMLKAVGTLRQGTEVTVTGRNGPFAQLKNGLWMKESFLE”, -1.04.
The result for “HMLQADALADPVGWALRTLGFDLEAGTPERSAIQRSFRQSLIEAHPDHGGADDEAAQRIADITEARRILLA” reads -0.346; that for “HMLQFTYPRLHTKKSWYVDFMSFDPGAGKMRRKKFMLDGIPKITDRRKRAAELIEVLTKQLRAGWSPWVNV”, -3.59.
The result for “HMLQIADEYLDRLQALFEDVRDNHFAIGDLLVELVDMHDSRRVDVINYIAGRLAISPTTLYDYENTARR” reads -0.792.
On to “HMLQLDATDRALIVATQGGLPLVPRPYQVVGEQLGISGEEVVARLRALLDAGVIRRIGAVPN”, for which the “soluble fraction (log2)” value is -0.283.
“HMLQLKEPLKKVYERLTPVPKTAETILAELWEKGEYLDIAALHRALMELELSGYVRQSSPGYFGTSA”: the “soluble fraction (log2)” value was -0.096.
The result for “HMLQQKESAALGERLLNQALATLKVEPDAISWDRWEALAKEYGAKSQLDILADIGLGKRLSFVVAQALTKV” reads -0.535; that for “HMLRDMIIQSYRYYTDKERNPRQVWNRMEADAFWEIIRDYEGYNGDGYVHTKIIPEMEALTVIEMDN”, -1.62.
Under “HMLRISLAAARVNAEMTQEDVAREMHVSKNTVVNWEKGKSEPTISQSRELSKLYNMPLEYIFYL” stands -3.05.
